Target: RAB21 (UniProt P35282)
Test: GST pull-down with purified proteins
Conditions: reference: RPH3A incubated with PKN1 without ATP; sites S234,S271

With “RPH3A (Rabphilin 3A) (from UniProt P47708) RPH3A incubated with PKN1 and ATP” the “binding against the reference” value was “stronger”.

— publication PMC5548392
